Reference: the supplement of paper PMC9233669
Fewer inactive variants are shown than the library holds.

Columns and labels:
biotinyl-Met-oxazolone = assay: self-aminoacylation, catalytic enhancement (BMO) (fold over background); higher = more active; k-Seq, kA / k0A0; sequences stand for … in GGGAAUGGAUCCACAUCUACGAAUUC…UUCACUGCAGACUUGACGAAGCUG
Method in brief: (§1)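 Catalytic enhancement equals the median kA over the uncatalyzed rate, the latter read from the low-activity peak of a bimodal Gaussian fit. Values of kA came from fitting each sequence's fraction reacted to a pseudo-first-order model, with 1000 bootstraps. Reacted RNA was captured with streptavidin and quantified by triplicate qPCR and Illumina sequencing after 90 minutes at room temperature with 2–1250 μM biotinyl-aminoacyl-oxazolone and 0.43 μM mutagenized RNA pools bearing a 21-nt variable region.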

biotinyl-Phe-oxazolone = assay: self-aminoacylation, catalytic enhancement (BFO) (fold over background); higher = more active; k-Seq, kA / k0A0; sequences stand for … in GGGAAUGGAUCCACAUCUACGAAUUC…UUCACUGCAGACUUGACGAAGCUG
Method in brief: as §1

biotinyl-Val-oxazolone = assay: self-aminoacylation, catalytic enhancement (BVO) (fold over background); higher = more active; k-Seq, kA / k0A0; sequences stand for … in GGGAAUGGAUCCACAUCUACGAAUUC…UUCACUGCAGACUUGACGAAGCUG
Method in brief: as §1

biotinyl-Ile-oxazolone = assay: self-aminoacylation, catalytic enhancement (BIO) (fold over background); higher = more active; k-Seq, kA / k0A0; sequences stand for … in GGGAAUGGAUCCACAUCUACGAAUUC…UUCACUGCAGACUUGACGAAGCUG
Method in brief: as §1

biotinyl-Trp-oxazolone = assay: self-aminoacylation, catalytic enhancement (BWO) (fold over background); higher = more active; k-Seq, kA / k0A0; sequences stand for … in GGGAAUGGAUCCACAUCUACGAAUUC…UUCACUGCAGACUUGACGAAGCUG
Method in brief: as §1

biotinyl-Leu-oxazolone = assay: self-aminoacylation, catalytic enhancement (BLO) (fold over background); higher = more active; k-Seq, kA / k0A0; sequences stand for … in GGGAAUGGAUCCACAUCUACGAAUUC…UUCACUGCAGACUUGACGAAGCUG
Method in brief: as §1

| Sequence | self-aminoacylation (biotinyl-Met-oxazolone) | self-aminoacylation (biotinyl-Phe-oxazolone) | self-aminoacylation (biotinyl-Val-oxazolone) | self-aminoacylation (biotinyl-Ile-oxazolone) | self-aminoacylation (biotinyl-Trp-oxazolone) | self-aminoacylation (biotinyl-Leu-oxazolone) |
| --- | --- | --- | --- | --- | --- | --- |
| AGUCACCUAGGUCAUCGGGAG [Fam2.2 aminoacylation ribozyme variant] | 1.93 | 1.38 | 1.76 | 1.65 | 2.56 | 1.74 |
| AGUCACCUAGGUCAUCGGGCG [Fam2.2 aminoacylation ribozyme variant] | 5.28 | 25.5 | 4.05 | 4.56 | 5.95 | 4.87 |
| AGUCACCUAGGUCAUCGGGGG [Fam2.2 aminoacylation ribozyme variant] | 3.3 | 17.5 | 2.9 | 3.13 | 3.68 | 3.14 |
| AGUCACCUAGGUCAUCGGUUG [Fam2.2 aminoacylation ribozyme variant] | 1.99 | 10.1 | 1.71 | 1.83 | 1.82 | 2.12 |
| AGUCACCUAGGUCGUCGGGUG [Fam2.2 aminoacylation ribozyme variant] | 2.28 | 12.9 | 2.43 | 2.48 | 2.71 | 4.29 |
| AGUCACCUAGGUGAUCGGGUG [Fam2.2 aminoacylation ribozyme variant] | 4.24 | 24.3 | 4.38 | 4.34 | 6.05 | 5.45 |
| AGUCUCCUAGGUCAUCGGGUG [Fam2.2 aminoacylation ribozyme variant] | 9.95 | 58.7 | 6.91 | 5.63 | 9.36 | 12.9 |
| AGUUCCCUGGUCAUCGAGUGA [Fam2.1 aminoacylation ribozyme variant] | 7.95 | 43.9 | 5 | 4.54 | 10.9 | 9.8 |
| AGUUUUGCUAAUAGUCGCAAG [Fam3.1 aminoacylation ribozyme variant] | 2.35 | 4.55 | 2.1 | 2.4 | 3.48 | 2.61 |
| AUAAACCUGGUCAUCGAGUGA [Fam2.1 aminoacylation ribozyme variant] | 7.78 | 11.4 | 4.1 | 4.13 | 9.62 | 8.44 |
| AUAACACUGGUCAUCGAGUGA [Fam2.1 aminoacylation ribozyme variant] | 4.84 | 14.7 | 3.06 | 2.83 | 6.89 | 4.62 |
| AUAACCCCGGUCAUCGAGUGA [Fam2.1 aminoacylation ribozyme variant] | 7.41 | 32.9 | 3.32 | 3.75 | 6.89 | 7.29 |
| AUAACCCUGGUCAUCAAGUGA [Fam2.1 aminoacylation ribozyme variant] | 2.3 | 2.73 | 1.27 | 1.45 | 2.39 | 2.24 |
| AUAACCCUGGUCAUCGAGUGG [Fam2.1 aminoacylation ribozyme variant] | 8.46 | 20.8 | 3.38 | 3.4 | 6.21 | 7.76 |
| AUAACCCUGGUCAUCGAGUUA [Fam2.1 aminoacylation ribozyme variant] | 2.5 | 4.86 | 1.34 | 1.7 | 1.12 | 2.86 |
| AUAACCCUGGUCAUCGCGUGA [Fam2.1 aminoacylation ribozyme variant] | 16 | 103 | 7.96 | 6.85 | 18.7 | 18.2 |
| AUAACCCUGGUCAUCGGGUGA [Fam2.1 aminoacylation ribozyme variant] | 31.3 | 183 | 13.4 | 12.1 | 35.3 | 35.6 |
| AUAACCCUGGUCAUGGAGUGA [Fam2.1 aminoacylation ribozyme variant] | 4.2 | 14.6 | 2.48 | 2.6 | 4.89 | 4.08 |
| AUAACCGUGGUCAUCGAGUGA [Fam2.1 aminoacylation ribozyme variant] | 5.06 | 25.1 | 2.85 | 2.64 | 6.26 | 5.49 |
| AUAAGCCUGGUCAUCGAGUGA [Fam2.1 aminoacylation ribozyme variant] | 6.25 | 29.4 | 4.25 | 4.71 | 9.48 | 7.06 |
| AUAAUCCUGGUCAUCGAGUGA [Fam2.1 aminoacylation ribozyme variant] | 7.24 | 9.11 | 3.48 | 3.72 | 7.96 | 6.95 |
| AUACAACUAGGUCAUCGGGUG [Fam2.2 aminoacylation ribozyme variant] | 5.2 | 34.4 | 3.22 | 3.32 | 5.27 | 6.09 |
| AUACACAUAGGUCAUCGGGUG [Fam2.2 aminoacylation ribozyme variant] | 5.61 | 40.3 | 3.83 | 3.69 | 6.66 | 6.21 |
| AUACACCUAGGCCAUCGGGUG [Fam2.2 aminoacylation ribozyme variant] | 2.42 | 12.9 | 2.32 | 2.73 | 3.66 | 3.51 |
| AUACACCUAGGUCAUCCGGUG [Fam2.2 aminoacylation ribozyme variant] | 3.91 | 30.6 | 3.14 | 3.5 | 5.38 | 6.81 |
| AUACACCUAGGUCAUCGGGUC [Fam2.2 aminoacylation ribozyme variant] | 1.31 | 7.44 | 1.29 | 1.08 | 1.18 | 1.57 |
